Experimental findings from US20070004909A1 (MacroGenics, published 2007) are described below.

One experiment concerns the target T1, sCD32B-Ig (UniProt P31994 43-217).
T1 construct: extracellular domain; also called CD32B (ELISA coat); sCD32B (target protein of the sandwich ELISAs); not shown: Ig part of sCD32B-Ig is not described
T1 sequence (looked up): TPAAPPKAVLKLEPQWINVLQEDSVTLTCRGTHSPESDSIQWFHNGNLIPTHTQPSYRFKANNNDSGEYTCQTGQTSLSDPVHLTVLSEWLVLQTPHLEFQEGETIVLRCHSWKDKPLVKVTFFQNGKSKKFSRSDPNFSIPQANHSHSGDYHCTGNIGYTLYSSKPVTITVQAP
Put plainly: sandwich ELISA: sCD32B-Ig coated on the plate, diabody titrated, detected with labelled sCD16A; OD450. As for the experimental part: The binding of h2B6-h3G8 CBD to sCD32B and sCD16A was assayed in a sandwich ELISA. sCD32B was used as the target protein. The secondary probe was HRP conjugated sCD16A. h3G8 CMD, which binds CD16A, was used as control.
ELISA: The binding of eluted and purified diabodies was characterized by ELISA assay, as described in 5.4.2. 50 ul/well of a 2 ug/ml solution of sCD32B-Ig was coated on 96-well Maxisorp plate in Carbonate buffer at 4° C. over night. The plate was washed three times with PBS-T (PBS, 0.1% Tween 20) and blocked by 0.5% BSA in PBS-T for 30 minutes at room temperature. Subsequently, h2B6-h3G8 CBD, h2B6 CMD, or h3G8 CMD were diluted into the blocking buffer in a serial of two-fold dilutions to generate a range of diabody concentrations, from 0.5 μg/ml to 0.001 μg/ml. The plate was then incubated at room temperature for 1 hour. After washing with PBS-T three times, 50 ul/well of 0.2 ug/ml sCD16A-Biotin was added to each well. The plate was again incubated at room temperature for 1 hour. After washing with PBS-T three times, 50 ul/well of a 1:5000 dilution of HRP conjugated streptavidin (Amersham Pharmacia Biotech) was used for detection. The HRP-streptavidin was allowed to incubate for 45 minutes at room temperature. […] The OD450 nm was read by using a 96-well plate reader and SOFTmax software, and results plotted using GraphPadPrism 3.03 software. […]

A further experiment has as its target T2, soluble CD32A (sCD32A) (UniProt P12318 34-217, limits assumed).
T2 construct: extracellular domain; Negative control surface in SPR; also called control receptor
T2 sequence (looked up): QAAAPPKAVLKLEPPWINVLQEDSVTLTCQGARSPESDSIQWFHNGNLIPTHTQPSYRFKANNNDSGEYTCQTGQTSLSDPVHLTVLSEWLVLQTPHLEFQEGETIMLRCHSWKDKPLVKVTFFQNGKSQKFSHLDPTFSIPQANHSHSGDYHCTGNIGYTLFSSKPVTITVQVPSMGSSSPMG
Put plainly: SPR (BIAcore), sCD32A (negative control receptor) immobilised, diabody injected for 60 s. How it is done: (§1) The binding of h2B6-h3G8 CBD, h2B6 CMD and h3G8 CMD to sCD16A, sCD32B, and sCD32A (negative control) was assayed by SPR analysis. h3G8 scFv was also tested as a control. (A) Binding to sCD16; (B) Binding to sCD32B and (C) Binding to sCD32A. Diabodies were injected at a concentration of 100 NM, and scFv at a concentration of 200 nM, over receptor surfaces at a flow rate of […] for 60 sec.
(In general: Surface plasmon resonance follows binding to a sensor surface in real time, without labels.)

In experiment [1] the target is T3, soluble CD16A (sCD16A) (UniProt P08637 17-208, limits assumed).
T3 construct: extracellular domain; Amine-coupled to the chip in SPR; biotin- or HRP-conjugated as the probe in the sandwich ELISAs; also called FcγRIIIA; sCD16A-Biotin
T3 sequence (P08637 17-208 limits assumed): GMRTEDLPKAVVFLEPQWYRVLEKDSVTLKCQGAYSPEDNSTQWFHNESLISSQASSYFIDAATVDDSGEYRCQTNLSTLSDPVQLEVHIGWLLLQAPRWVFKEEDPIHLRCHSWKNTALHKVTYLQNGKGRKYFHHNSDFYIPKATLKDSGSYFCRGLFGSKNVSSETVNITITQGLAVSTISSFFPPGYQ
Kind of experiment: SPR (BIAcore 1000); receptor amine-coupled (~1000 RU), analyte 6.25-200 nM; units not printed (koff/kon implies nM). How it is done:
(§2) The binding of h2B6-h3G8 CBD, h2B6 CMD and h3G8 CMD to sCD16A, and sCD32B was assayed by SPR analysis. h3G8 scFv was also tested as a control. (A) Binding of to h3G8 CMD sCD16A; (B) Binding of h2B6-h3G8 CBD to sCD16A; (C) Binding of h3G8 scFv to sCD16A; (D) Binding of h2B6 CMD to sCD32B; and (E) Binding of h2B6-h3G8 CBD to sCD32B. Diabodies were injected at concentrations of 6.25-200 nM over receptor surfaces at a flow rate of […] for 180 sec.
(§3) SPR analysis was also used to estimate the kinetic and equilibrium constants of the CMDs and h2B6-h3G8 CBD to sCD16 and/or sCD32B. Results were compared to the same constants calculated for an h3G8 scFV. FIGS. 7A-E show the graphical results of the SPR analysis. The kinetic on and off rates, as well as the equilibrium constant, calculated from the results depicted in FIG. 7 are provided in Table 13.

Experiment [2] addresses T4, soluble CD32B (sCD32B) (UniProt P31994 43-217, limits assumed).
T4 construct: extracellular domain; As immobilised on the BIAcore chip; also called FcγRIIB
T4 sequence (looked up): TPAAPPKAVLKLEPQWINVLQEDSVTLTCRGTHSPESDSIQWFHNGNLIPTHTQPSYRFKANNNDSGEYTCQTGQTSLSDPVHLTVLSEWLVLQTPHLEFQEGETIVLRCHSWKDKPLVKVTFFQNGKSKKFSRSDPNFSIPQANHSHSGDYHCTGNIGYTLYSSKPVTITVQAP
Put plainly: SPR (BIAcore), sCD32B immobilised, diabody injected for 60 s. As for the experimental part:
as §1

For experiment [3], the target named is T3, soluble CD16A (sCD16A). Kind of experiment: sandwich ELISA: mCD32B coated on the plate, diabody preparation diluted 1:25 and 1:50, biotin-conjugated sCD16A as the probe; OD450. As for the experimental part: (§4) The binding of diabody molecules derived from the polyprotein precursor molecule construct 13 (SEQ ID NO:97) to murine CD32B (mCD32B) and soluble CD16A (sCD16A) was assayed in a sandwich ELISA. mCD32B was used as the target protein. The secondary probe was biotin conjugated sCD16A.
(§5) ELISA: The binding of diabody molecules secreted into the medium was assayed by sandwich ELISA as described, supra. Murine CD32B was used to coat the plate, i.e., as the target protein, and HRP-conjugated CD16A was used as the probe for the product of the co-transfection of constructs 15 and 16. mCD32B was used as the target protein and biotin-conjugated CD16A was used as the probe for the recombinant system comprising construct 13.
(§6) Conditioned media from the recombinant expression systems comprising constructs 13 was analysed by sandwich ELISA. The ELISA assay tested the binding of the CBD for specificity to either or both of mCD32B and/or CD16 (FIG. 18). CD32B served as the target antigen and CD16A was used as the secondary probe.

The target in another experiment is T5, murine CD32B (mCD32B) (murine, UniProt P08101 30-210, limits assumed).
T5 construct: Coating protein of the sandwich ELISA for the construct 13 product
T5 sequence (looked up): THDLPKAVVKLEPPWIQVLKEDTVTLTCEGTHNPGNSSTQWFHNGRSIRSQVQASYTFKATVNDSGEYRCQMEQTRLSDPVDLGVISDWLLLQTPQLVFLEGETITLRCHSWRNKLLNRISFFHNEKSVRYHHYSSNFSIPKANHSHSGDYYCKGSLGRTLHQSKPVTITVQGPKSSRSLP
The experiment is described as above. How it is done: as §4, §5, §6

Experiment [4] deals with T3, soluble CD16A (sCD16A). Put plainly: sandwich ELISA: sCD32B coated on the plate (figure legend), purified diabody diluted 1:25 to 1:100, HRP-conjugated sCD16A as the probe; OD450. (In general: ELISA stands for enzyme-linked immunosorbent assay.)
In experiment [5] the target is T3, soluble CD16A (sCD16A). Put plainly: SPR (BIAcore), sCD16 immobilised, diabody injected for 60 s. How it is done:
as §1

For experiment [6], the target named is T4, soluble CD32B (sCD32B). Kind of experiment: SPR (BIAcore 1000); receptor amine-coupled (~1000 RU), analyte 6.25-200 nM; units not printed (koff/kon implies nM). How it is done: as §2, §3

B1: h3G8 covalent monospecific diabody (CMD) (other)
chain 1: DIVMTQSPDSLAVSLGERATINCKASQSVDFDGDSFMNWYQQKPGQPPKLLIYTTSNLESGVPDRFSGSGSGTDFTLTISSLQAEDVAVYYCQQSNEDPYTFGQGTKLEIKGGGSGGGGQVTLRESGPALVKPTQTLTLTCTFSGFSLSTSGMGVGWIRQPPGKALEWLAHIWWDDDKRYNPALKSRLTISKDTSKNQVVLTMTNMDPVDTATYYCAQINPAWFAYWGQGTLVTVSSLGGC
chain 2: DIVMTQSPDSLAVSLGERATINCKASQSVDFDGDSFMNWYQQKPGQPPKLLIYTTSNLESGVPDRFSGSGSGTDFTLTISSLQAEDVAVYYCQQSNEDPYTFGQGTKLEIKGGGSGGGGQVTLRESGPALVKPTQTLTLTCTFSGFSLSTSGMGVGWIRQPPGKALEWLAHIWWDDDKRYNPALKSRLTISKDTSKNQVVLTMTNMDPVDTATYYCAQINPAWFAYWGQGTLVTVSSLGGC
modifications: Covalent homodimer: disulfide between the C-terminal LGGC cysteines of the two identical chains.
notes: also called h3G8 CMD; h3G8 diabody
A word on the Kd: it is a measure of binding affinity in units of concentration. High values mean a looser complex, low ones a tighter complex. In the case of B1, the binding result in the experiment with sCD32B-Ig is reported as “no binding (tested: 0.5 ug/ml)”; with soluble CD32A (sCD32A), “no binding (tested: 100 nM)”; with soluble CD32B (sCD32B) [2] it was “no binding (tested: 100 nM)”. In addition, the Kd with soluble CD16A (sCD16A) [1] turned out to be 18 nM.

B2: h2.4G2-h3G8 CBD produced from the polyprotein precursor construct 13 (bispecific antibody)
chain 1: DTVLTQSPASLAVSLGQRATISCKASQSVDFDGDSFMNWYQQKPGQPPKLLIYTTSNLESGIPARFSASGSGTDFTLNIHPVEEEDTATYYCQQSNEDPYTFGGGTKLEIKGGGSGGGGEVELVESGGGLVQPGRSLKLSCAASGFTFSDYYMAWVRQAPTTGLEWVASISYDGGDTHYRDSVKGRFTISRDNAKSSLYLQMDSLRSEDTATYYCATETTGIPTGVMDAWGQGVSVTVSSLGGCGGRAKR
chain 2: DVQMTQSPSNLAASPGESVSINCKASESISKYLAWYLQKPGKANKLLMYDGSTLQSGIPSRFSGSGSGTDFTLTIRSLEPEDFGLYYCQQHYEYPATFGSGTKLEIKGGGSGGGGQVTLKESGPGILQPSQTLSLTCSFSGFSLRTSGMGVGWIRQPSGKGLEWLAHIWWDDDKRYNPALKSRLTISKDTSSNQVFLKIASVDTADTATYYCAQINPAWFAYWGQGTLVTVSSLGGC
modifications: Interchain disulfide between the cysteines of the two LGGC sequences.
notes: In the assay it is the heterodimer of the two chains made by furin cleavage; also called pMGX0750 product; diabody molecules derived from the polyprotein precursor; copies: 1 + 1
As for B2, the binding result in the experiment with soluble CD16A (sCD16A) [3] and in the experiment with murine CD32B (mCD32B) was “binds” each time.

B3: covalent bispecific diabody of constructs 15 and 16 (pMGX0752+pMGX0753) (bispecific antibody)
chain 1: EIVLTQSPDFQSVTPKEKVTFTCRTSQSIGTNIHWYQQKPDQSPKLLIKEVSESISGVPSRFSGSGSGTDFTLTINSLEAEDAATYYCQQSNTWPFTFGGGTKVEIKGGGSGGGGQVTLRESGPALVKPTQTLTLTCTFSGFSLSTSGMGVGWIRQPPGKALEWLAHIWWDDDKRYNPALKSRLTISKDTSKNQVVLTMTNMDPVDTATYYCAQINPAWFAYWGQGTLVTVSSFNRGEC
chain 2: DIVMTQSPDSLAVSLGERATINCKASQSVDFDGDSFMNWYQQKPGQPPKLLIYTTSNLESGVPDRFSGSGSGTDFTLTISSLQAEDVAVYYCQQSNEDPYTFGQGTKLEIKGGGSGGGGQVQLVQSGAEVKKPGASVKVSCKASGYTFTNYWIHWVRQAPGQGLEWIGVIDPSDTYPNYNKKFKGRVTMTVVVSTSTAYMELRSLRSDDTAVYYCARNGDSDYYSGMDYWGQGTTVTVSSVEPKSC
notes: Construct 15 = Hu2B6VL-Hu3G8VH-FNRGEC; construct 16 = Hu3G8VL-Hu2B6VH-VEPKSC; also called construct 15/16 combination
Regarding B3, the binding result in the experiment with soluble CD16A (sCD16A) [4] is listed as “binds”.

B4: h2B6 covalent monospecific diabody (CMD) (other)
chain 1: EIVLTQSPDFQSVTPKEKVTFTCRTSQSIGTNIHWYQQKPDQSPKLLIKEVSESISGVPSRFSGSGSGTDFTLTINSLEAEDAATYYCQQSNTWPFTFGGGTKVEIKGGGSGGGGQVQLVQSGAEVKKPGASVKVSCKASGYTFTNYWIHWVRQAPGQGLEWIGVIDPSDTYPNYNKKFKGRVTMTVVVSTSTAYMELRSLRSDDTAVYYCARNGDSDYYSGMDYWGQGTTVTVSSLGGC
chain 2: EIVLTQSPDFQSVTPKEKVTFTCRTSQSIGTNIHWYQQKPDQSPKLLIKEVSESISGVPSRFSGSGSGTDFTLTINSLEAEDAATYYCQQSNTWPFTFGGGTKVEIKGGGSGGGGQVQLVQSGAEVKKPGASVKVSCKASGYTFTNYWIHWVRQAPGQGLEWIGVIDPSDTYPNYNKKFKGRVTMTVVVSTSTAYMELRSLRSDDTAVYYCARNGDSDYYSGMDYWGQGTTVTVSSLGGC
modifications: Covalent homodimer: disulfide between the C-terminal LGGC cysteines of the two identical chains.
notes: also called h2B6 CMD; h2B6 diabody
Regarding B4, the binding result with soluble CD32A (sCD32A) and with soluble CD16A (sCD16A) [5] was “no binding (tested: 100 nM)” each time. In addition, the equilibrium dissociation constant (Kd) with soluble CD32B (sCD32B) [6] was 21 nM.
